# Data as given in publication PMC10786891, “Massively parallel profiling of RNA-targeting CRISPR-Cas13d”.
# Changes are numbered by the printed parent chain. Names may count otherwise.
# T1: EsCas13d, nuclease-dead (Eubacterium siraeum, UniProt B0MS50, R295A;H300A;R849A;H854A)
# T1 sequence: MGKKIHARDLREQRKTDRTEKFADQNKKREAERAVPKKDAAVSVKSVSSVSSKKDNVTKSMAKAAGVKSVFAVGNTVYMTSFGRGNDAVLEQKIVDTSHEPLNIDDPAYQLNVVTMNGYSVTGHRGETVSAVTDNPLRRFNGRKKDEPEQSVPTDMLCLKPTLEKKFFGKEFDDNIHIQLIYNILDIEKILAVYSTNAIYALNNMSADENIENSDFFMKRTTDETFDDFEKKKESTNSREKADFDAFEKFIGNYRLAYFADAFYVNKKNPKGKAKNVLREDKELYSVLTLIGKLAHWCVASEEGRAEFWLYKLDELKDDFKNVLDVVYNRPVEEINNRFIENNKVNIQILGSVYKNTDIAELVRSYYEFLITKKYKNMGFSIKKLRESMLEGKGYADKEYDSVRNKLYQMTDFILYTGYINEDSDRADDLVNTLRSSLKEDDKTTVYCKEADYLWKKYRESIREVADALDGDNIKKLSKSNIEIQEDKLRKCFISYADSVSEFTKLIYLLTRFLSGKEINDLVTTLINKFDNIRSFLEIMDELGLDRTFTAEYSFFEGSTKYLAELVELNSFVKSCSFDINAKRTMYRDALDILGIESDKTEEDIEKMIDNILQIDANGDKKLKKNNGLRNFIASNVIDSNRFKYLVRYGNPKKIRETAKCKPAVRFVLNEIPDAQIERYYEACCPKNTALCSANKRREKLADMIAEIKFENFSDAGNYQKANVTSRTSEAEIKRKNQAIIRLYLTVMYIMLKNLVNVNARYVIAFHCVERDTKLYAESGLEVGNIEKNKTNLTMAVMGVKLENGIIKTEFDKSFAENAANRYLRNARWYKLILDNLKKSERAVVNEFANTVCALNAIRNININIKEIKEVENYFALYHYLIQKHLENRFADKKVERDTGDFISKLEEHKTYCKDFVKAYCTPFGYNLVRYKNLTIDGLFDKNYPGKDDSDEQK
# B1: target 1 insA 3' of 19,insG 3' of 6 (mixed)
# RNA 1: CACCCGUGCAAAAAUGCAGGGGUCUAAAACUGAGCGGAUAACCUCUCUAUGG
# RNA 2: GGGAAUGGAUCCACAUCUACGAAUUCGUACCAUAAGAGAGGUUAUCCGGCUCACCGAGAUCGGAAGAGCACACGU
# B2: target 1 C2G,G13C (mixed)
# RNA 1: B1 RNA 1
# RNA 2: GGGAAUGGAUCCACAUCUACGAAUUCGUACCAUAGAGACGUUAUCCGCUGACCGAGAUCGGAAGAGCACACGU
# B3: target 1 MT 5'PFS GUU 3'PFS CUA (mixed)
# RNA 1: B1 RNA 1
# RNA 2: B2 RNA 2 with A29U, C39G, G50C, C53U, G54A
# B4: target 1 MT 5'PFS GUU 3'PFS CUG (mixed)
# RNA 1: B1 RNA 1
# RNA 2: B2 RNA 2 with A29U, C39G, G50C, C53U
# B5: target 1 MT 5'PFS AGA 3'PFS ACC (mixed)
# RNA 1: B1 RNA 1
# RNA 2: B2 RNA 2 with G27A, U28G, C39G, G50C, C52A, G54C
# B6: target 1 MT 5'PFS UCG 3'PFS AGU (mixed)
# RNA 1: B1 RNA 1
# RNA 2: B2 RNA 2 with G27U, U28C, A29G, C39G, G50C, C52A, C53G, G54U
# B7: target 1 MT 5'PFS AGA 3'PFS UCU (mixed)
# RNA 1: B1 RNA 1
# RNA 2: B2 RNA 2 with G27A, U28G, C39G, G50C, C52U, G54U
# B8: target 1 MT 5'PFS AGA 3'PFS UCG (mixed)
# RNA 1: B1 RNA 1
# RNA 2: B2 RNA 2 with G27A, U28G, C39G, G50C, C52U
# B9: target 1 MT 5'PFS ACG 3'PFS CAC (mixed)
# RNA 1: B1 RNA 1
# RNA 2: B2 RNA 2 with G27A, U28C, A29G, C39G, G50C, C53A, G54C
# B10: target 1 MT 5'PFS GGA 3'PFS CUA (mixed)
# RNA 1: B1 RNA 1
# RNA 2: B2 RNA 2 with U28G, C39G, G50C, C53U, G54A
# B11: target 1 MT 5'PFS GUG 3'PFS AAA (mixed)
# RNA 1: B1 RNA 1
# RNA 2: B2 RNA 2 with A29G, C39G, G50C, C52A, C53A, G54A
# B12: target 1 G15C,A16U (mixed)
# RNA 1: B1 RNA 1
# RNA 2: B2 RNA 2 with A36U, G37C, C39G, G50C
# B13: target 1 MT 5'PFS CCA 3'PFS CUA (mixed)
# RNA 1: B1 RNA 1
# RNA 2: B2 RNA 2 with G27C, U28C, C39G, G50C, C53U, G54A
# B14: target 1 MT 5'PFS UCG 3'PFS CGU (mixed)
# RNA 1: B1 RNA 1
# RNA 2: B2 RNA 2 with G27U, U28C, A29G, C39G, G50C, C53G, G54U
# B15: target 1 MT 5'PFS CAU 3'PFS CUU (mixed)
# RNA 1: B1 RNA 1
# RNA 2: B2 RNA 2 with G27C, U28A, A29U, C39G, G50C, C53U, G54U
# B16: target 1 C6U,C7U (mixed)
# RNA 1: B1 RNA 1
# RNA 2: B2 RNA 2 with C39G, C45U, C46U, G50C
# B17: target 1 MT 5'PFS CAA 3'PFS ACU (mixed)
# RNA 1: B1 RNA 1
# RNA 2: B2 RNA 2 with G27C, U28A, C39G, G50C, C52A, G54U
# B18: target 1 MT 5'PFS AGA 3'PFS ACA (mixed)
# RNA 1: B1 RNA 1
# RNA 2: B2 RNA 2 with G27A, U28G, C39G, G50C, C52A, G54A
# B19: target 1 MT 5'PFS CAG 3'PFS CGU (mixed)
# RNA 1: B1 RNA 1
# RNA 2: B2 RNA 2 with G27C, U28A, A29G, C39G, G50C, C53G, G54U
# B20: target 1 MT 5'PFS UCG 3'PFS AGA (mixed)
# RNA 1: B1 RNA 1
# RNA 2: B2 RNA 2 with G27U, U28C, A29G, C39G, G50C, C52A, C53G, G54A
# B21: target 1 MT 5'PFS GGG 3'PFS GCU (mixed)
# RNA 1: B1 RNA 1
# RNA 2: B2 RNA 2 with U28G, A29G, C39G, G50C, C52G, G54U
# B22: target 1 MT 5'PFS CAA 3'PFS ACG (mixed)
# RNA 1: B1 RNA 1
# RNA 2: B2 RNA 2 with G27C, U28A, C39G, G50C, C52A
# B23: target 1 MT 5'PFS GUU 3'PFS CUU (mixed)
# RNA 1: B1 RNA 1
# RNA 2: B2 RNA 2 with A29U, C39G, G50C, C53U, G54U
# B24: target 1 MT 5'PFS AGA 3'PFS UCC (mixed)
# RNA 1: B1 RNA 1
# RNA 2: B2 RNA 2 with G27A, U28G, C39G, G50C, C52U, G54C
# B25: target 1 MT 5'PFS AGA 3'PFS UCA (mixed)
# RNA 1: B1 RNA 1
# RNA 2: B2 RNA 2 with G27A, U28G, C39G, G50C, C52U, G54A
# B26: target 1 MT 5'PFS AGG 3'PFS UUC (mixed)
# RNA 1: B1 RNA 1
# RNA 2: B2 RNA 2 with G27A, U28G, A29G, C39G, G50C, C52U, C53U, G54C
# B27: target 1 MT 5'PFS CCU 3'PFS AAU (mixed)
# RNA 1: B1 RNA 1
# RNA 2: B2 RNA 2 with G27C, U28C, A29U, C39G, G50C, C52A, C53A, G54U
# B28: target 1 MT 5'PFS ACA 3'PFS UAC (mixed)
# RNA 1: B1 RNA 1
# RNA 2: B2 RNA 2 with G27A, U28C, C39G, G50C, C52U, C53A, G54C
# B29: target 1 MT 5'PFS AGA 3'PFS ACG (mixed)
# RNA 1: B1 RNA 1
# RNA 2: B2 RNA 2 with G27A, U28G, C39G, G50C, C52A
# B30: target 1 MT 5'PFS AGG 3'PFS UUG (mixed)
# RNA 1: B1 RNA 1
# RNA 2: B2 RNA 2 with G27A, U28G, A29G, C39G, G50C, C52U, C53U
# B31: target 1 MT 5'PFS GUG 3'PFS GCG (mixed)
# RNA 1: B1 RNA 1
# RNA 2: B2 RNA 2 with A29G, C39G, G50C, C52G
# B32: target 1 insA 3' of 17,insC 3' of 9 (mixed)
# RNA 1: B1 RNA 1
# RNA 2: B1 RNA 2 with A35G, G36A, U45C, C46U, G48C
# B33: target 1 MT 5'PFS GUG 3'PFS AAU (mixed)
# RNA 1: B1 RNA 1
# RNA 2: B2 RNA 2 with A29G, C39G, G50C, C52A, C53A, G54U
# B34: target 1 MT 5'PFS GUG 3'PFS AAC (mixed)
# RNA 1: B1 RNA 1
# RNA 2: B2 RNA 2 with A29G, C39G, G50C, C52A, C53A, G54C
# B35: target 1 MT 5'PFS UAA 3'PFS UCG (mixed)
# RNA 1: B1 RNA 1
# RNA 2: B2 RNA 2 with G27U, U28A, C39G, G50C, C52U
# B36: target 1 MT 5'PFS GUG 3'PFS AAG (mixed)
# RNA 1: B1 RNA 1
# RNA 2: B2 RNA 2 with A29G, C39G, G50C, C52A, C53A
# B37: target 1 MT 5'PFS GUU 3'PFS CUC (mixed)
# RNA 1: B1 RNA 1
# RNA 2: B2 RNA 2 with A29U, C39G, G50C, C53U, G54C
# B38: target 1 MT 5'PFS GUG 3'PFS GCC (mixed)
# RNA 1: B1 RNA 1
# RNA 2: B2 RNA 2 with A29G, C39G, G50C, C52G, G54C
# B39: target 1 MT 5'PFS UGC 3'PFS AAG (mixed)
# RNA 1: B1 RNA 1
# RNA 2: B2 RNA 2 with G27U, U28G, A29C, C39G, G50C, C52A, C53A
# B40: target 1 MT 5'PFS GGA 3'PFS CUC (mixed)
# RNA 1: B1 RNA 1
# RNA 2: B2 RNA 2 with U28G, C39G, G50C, C53U, G54C
# Target: T1, EsCas13d, nuclease-dead
# Experiment: crRNA (strand 1, pre-loaded); Mg2+; 40 mM Tris-HCl pH 7.5, 150 mM NaCl, 6 mM MgCl2, 1 mM DTT, 0.1% Tween-20, 0.2 mg/ml BSA; 25 C; 10 min per concentration, then washed
# Conditions: tags: His6-TwinStrep-SUMO cleaved; N-terminal SNAP kept (SNAP-Surface 488); label: 3' end held by stalled T7 RNA polymerase
row,Binder,Kd [nM]
1,B1,25.7 ± 2.3
2,B2,47 ± 3.5
3,B3,17.6 ± 3.25
4,B4,12.8 ± 1.4
5,B5,47 ± 16
6,B6,50 ± 24.5
7,B7,42 ± 15.5
8,B8,47 ± 17.5
9,B9,~36
10,B10,27 ± 6.5
11,B11,30.3 ± 2.5
12,B12,47 ± 4
13,B13,2.5 ± 0.8
14,B14,~100
15,B15,~48.5
16,B16,6.3 ± 0.5
17,B17,~20.5
18,B18,56 ± 18
19,B19,29.5 ± 10
20,B20,39 ± 11

row,Binder,Kd [nM]
1,B21,7.45 ± 1.45
2,B22,15 ± 5.5
3,B23,16.4 ± 3.1
4,B24,49.5 ± 19
5,B25,61 ± 23
6,B26,33 ± 11
7,B27,16.7 ± 4.65
8,B28,25.5 ± 11
9,B29,29.5 ± 7
10,B30,40.5 ± 9.5
11,B31,14.4 ± 2
12,B32,12.3 ± 0.6
13,B33,22.1 ± 1.75
14,B34,23.9 ± 2.9
15,B35,23 ± 6.5
16,B36,23.1 ± 1.45
17,B37,21.5 ± 4
18,B38,12.7 ± 1.6
19,B39,76 ± 33.5
20,B40,47 ± 17.5
